Experimental data taken from patent US20180038857A1 (published 2018).
Bridge positions count the residues as written; N and C are the ends. * marks the point of attachment. Biotin = O=C1N[C@H]2[C@H](CS[C@H]2CCCCC(=O)*)N1

Key:
Assay in all cases: cell depletion on chemokine-streptavidin Sepharose column, flow cytometry for CCR1, 3 and 5-expressing cells
hCCR3 = target: T1, hCCR3 (human, UniProt P51677 1-355)
T1 construct: whole, on cells
T1 sequence (looked up): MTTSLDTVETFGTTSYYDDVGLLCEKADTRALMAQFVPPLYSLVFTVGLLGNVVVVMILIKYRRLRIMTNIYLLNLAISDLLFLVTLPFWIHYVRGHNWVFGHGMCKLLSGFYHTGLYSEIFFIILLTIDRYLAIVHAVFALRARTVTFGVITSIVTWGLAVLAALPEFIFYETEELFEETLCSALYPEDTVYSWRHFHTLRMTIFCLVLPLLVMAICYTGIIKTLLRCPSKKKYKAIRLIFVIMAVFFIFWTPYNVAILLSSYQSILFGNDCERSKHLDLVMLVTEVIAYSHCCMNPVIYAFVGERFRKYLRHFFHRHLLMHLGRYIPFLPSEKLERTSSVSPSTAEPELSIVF
Experimental: (§1) To investigate the ability to eliminate CCR1, 3 and 5-expressing cells, in vitro tests have been performed on the biotinylated RANTES coupled matrix. Blood was collected from blood donors and passed through the column device containing biotinylated RANTES coupled matrix. Blood samples were taken before and after column passage and analyzed by flow cytometry (FACS) for the depletion of CCR1, 3 and 5-expressing cells.
(§2) Depletion tests were performed on blood from a healthy donor.

hCCR5 = target: T2, hCCR5 (human, UniProt P51681 1-352)
T2 construct: whole, on cells
T2 sequence (P51681 whole entry): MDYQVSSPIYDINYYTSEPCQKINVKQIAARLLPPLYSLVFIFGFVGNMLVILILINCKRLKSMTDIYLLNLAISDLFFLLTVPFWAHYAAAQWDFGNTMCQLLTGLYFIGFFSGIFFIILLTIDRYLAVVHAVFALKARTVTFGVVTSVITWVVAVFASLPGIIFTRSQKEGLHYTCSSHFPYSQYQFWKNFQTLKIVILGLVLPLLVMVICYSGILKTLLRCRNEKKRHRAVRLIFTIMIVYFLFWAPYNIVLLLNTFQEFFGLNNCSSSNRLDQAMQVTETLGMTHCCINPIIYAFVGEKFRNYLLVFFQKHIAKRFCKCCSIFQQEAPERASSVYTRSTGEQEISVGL
Experimental: as §1, §2

CCR1 = target: T3, CCR1 (human, UniProt P32246 1-355)
T3 construct: whole, on cells; Endogenous receptor on blood cells in the RANTES depletion test
T3 sequence (looked up): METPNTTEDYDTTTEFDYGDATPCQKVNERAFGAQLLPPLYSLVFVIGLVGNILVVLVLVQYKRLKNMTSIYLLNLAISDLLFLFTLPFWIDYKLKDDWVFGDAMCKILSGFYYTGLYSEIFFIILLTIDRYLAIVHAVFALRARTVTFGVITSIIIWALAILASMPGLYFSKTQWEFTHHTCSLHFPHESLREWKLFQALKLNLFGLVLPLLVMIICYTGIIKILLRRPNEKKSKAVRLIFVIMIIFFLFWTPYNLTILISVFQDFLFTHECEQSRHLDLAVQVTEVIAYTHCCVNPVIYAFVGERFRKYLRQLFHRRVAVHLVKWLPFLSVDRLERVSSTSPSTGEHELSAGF
Experimental: as §1, §2

Measured: reduction of chemokine receptor-expressing cells by the column

B1: biotinRANTES (CCL5): RANTES derivatised at the ε-amino side chain functionality of Lys(67) with Biotin (ligand)
chain: H-SPYSSDTTPCCFAYIARPLPRAHIKEYFYTSGKCSNPAVVFVTRKNRQVCANPEKKWVREYINSLEK(Biotin)S-OH
modifications: disulfide 10-34, 11-50; also: TFA salt
notes: It is treated here as the same molecule; also called biotinylated RANTES
~20%: hCCR3 | hCCR5 | CCR1
